Test results as given in patent US20140199302A1 (GENERAL HOSPITAL, published 2014).

Key:
[1] = target: T1, soluble human hemojuvelin with a HIS-tag (HJV.His) (human, UniProt Q6ZVN8 36-400, limits assumed); experiment: Biacore SPR, HJV.His in solution over human BMP6 immobilized on a CM5 chip by amine coupling; 1:1 binding fit (Chi2 9.32 printed beside it)
T1 construct: also called monomeric HJV.His; not shown: HIS-tag
T1 sequence (looked up): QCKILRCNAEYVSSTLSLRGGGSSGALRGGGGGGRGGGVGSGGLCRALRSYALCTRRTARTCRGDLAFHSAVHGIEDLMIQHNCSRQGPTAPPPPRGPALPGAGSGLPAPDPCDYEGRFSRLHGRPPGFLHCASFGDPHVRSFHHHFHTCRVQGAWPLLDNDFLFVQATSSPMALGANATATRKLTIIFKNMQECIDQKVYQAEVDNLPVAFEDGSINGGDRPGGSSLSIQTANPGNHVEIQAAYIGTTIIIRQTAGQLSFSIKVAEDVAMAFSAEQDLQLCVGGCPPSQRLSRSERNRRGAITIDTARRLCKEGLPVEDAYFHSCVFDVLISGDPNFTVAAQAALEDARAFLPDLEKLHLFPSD

[2] = target: T1, soluble human hemojuvelin with a …; experiment: SPR (Biacore), human BMP6 amine-coupled on CM5 chip, one-site univalent fit model; monomeric HJV.His; one-site univalent fit

B1: human BMP6 (ligand, UniProt P22004 382-513, looked up)
chain: QQSRNRSTQSQDVARVSSASDYNSSELKTACRKHELYVSFQDLGWQDWIIAPKGYAANYCDGECSFPLNAHMNATNHAIVQTLVHLMNPEYVPKPCCAPTKLNAISVLYFDDNSNVILKKYRNMVVRACGCH
notes: also called bone morphogenic protein-6
- Kd [1]: 36 nM
- Kd [2]: ~33 nM
